First the molecules themselves.
B1: PK1-16 (antibody, V domains shown)
VH: AVTLDESGGGLQTPGGGLSLVCKASGFTFRSYAMYWVRQAPGKGLEWLAGISSSGRYTGYAPAVKGRATISRDNGQSTVRLQLSNLRAEDAGTYYCAKDVYDSWTYANRIDAWGHGTEVIVSS
VL: ALTQPSSVSANPGETVKITCSGGGRRGYYGWYQQKSPGSAPVTVIYNNDERPSNIPSRFSGFKSGSTATLTITGVQAEDEAVYYCGSGDTTTDSGIFGAGTTLTVLG
B2: CK1-10 (antibody, V domains shown)
VH: AVTLDESGGGLQTPGRALSLVCKASGFTFSDYGMGWMRQAPGKGLEWVGAISNRGSHTYYGAAVKGRATISRDNGQSTVRLQLNNLRAEDTGTYYCAKDAGTCISSYGFSCVSAASIDAWGHGTEVIVSS
VL: ALTQPSSVSANLGGTVKITCSGGSGSYGGSYYYGWYQQKAPGSAPVTLIYDNTNRPSNIPSRFSGSKSGSTATLTITGVQADDEAVYFCGSIDSISDADIFGAGTTLTVLG
B3: CK1-14 (antibody, V domains shown)
VH: AVTLDESGGGLQTPGGALSLVCKASGFTFTRYAIQWVRQAPGKGLEWVGVINSGGRTLYAPAVKGRATISRDNGQSTVRLQLNNLRAEDTAIYYCVRGGYAYGIETWGHGTEVIVSS
VL: ALTQPSSVSANPGETVKITCSGSRYDYGWYQQKSPGSAPVTLIYYNNKRPSDIPSRFSGSKSGSTHTLTITGVQADDEAVYFCGSTDTSNDIFGAGTTLTVLG

human PAD2 protein, sequence (Q9Y2J8 whole entry): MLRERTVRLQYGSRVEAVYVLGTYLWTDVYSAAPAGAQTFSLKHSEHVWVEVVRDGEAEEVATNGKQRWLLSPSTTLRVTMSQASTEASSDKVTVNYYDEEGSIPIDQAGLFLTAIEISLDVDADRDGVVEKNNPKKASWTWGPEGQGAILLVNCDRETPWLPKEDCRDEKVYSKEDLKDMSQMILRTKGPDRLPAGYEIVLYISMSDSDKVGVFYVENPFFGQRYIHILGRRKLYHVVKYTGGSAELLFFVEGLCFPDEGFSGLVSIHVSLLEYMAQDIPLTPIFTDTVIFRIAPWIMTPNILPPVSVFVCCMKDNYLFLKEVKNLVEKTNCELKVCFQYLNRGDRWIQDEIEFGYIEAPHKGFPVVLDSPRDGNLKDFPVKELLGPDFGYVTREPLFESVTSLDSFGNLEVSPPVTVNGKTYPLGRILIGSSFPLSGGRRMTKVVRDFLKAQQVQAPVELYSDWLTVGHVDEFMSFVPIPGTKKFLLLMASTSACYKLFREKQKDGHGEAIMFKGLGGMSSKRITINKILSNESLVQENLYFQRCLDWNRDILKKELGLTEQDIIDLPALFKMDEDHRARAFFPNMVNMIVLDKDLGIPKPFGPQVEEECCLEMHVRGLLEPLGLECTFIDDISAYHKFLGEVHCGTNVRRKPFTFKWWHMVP

This test concerns the target human PAD2 protein (UniProt Q9Y2J8 1-665). In words: SPR. Background: In SPR one partner is held on a chip, and binding of the other changes the refractive index at the surface.
As usually defined, the Kd is the equilibrium constant for the complex coming apart. The molecule B1 returned a Kd of 1.68 nM. In the case of B2, the affinity, expressed as Kd, was 0.9 nM. The result for B3 reads 1.37 nM.
